Data as given in patent US20170260534A1 (ANAEROPHARMA SCIENCE, published 2017).
Where a chain is given by its changes, count along the chain named. Names may count otherwise.

T1: Recombinant Human CTLA-4-Fc Chimera (BioLegend) (human, UniProt P16410 36-161, limits assumed)
T1 construct: Bought reagent; also called hCTLA-4; hCTLA-4 immobilized; not shown: human IgG1 Fc
T1 sequence (looked up): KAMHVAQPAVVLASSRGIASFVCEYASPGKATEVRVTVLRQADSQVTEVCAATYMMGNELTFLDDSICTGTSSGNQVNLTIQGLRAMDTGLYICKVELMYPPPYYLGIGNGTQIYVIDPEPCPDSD

T2: mPD-1 (Fc Chimera, R&D Systems) (mouse, UniProt Q02242 25-167)
T2 construct: Species read from the label mPD-1 only; also called mPD-1 immobilized; Fc part of the bought chimera not given
T2 sequence (looked up): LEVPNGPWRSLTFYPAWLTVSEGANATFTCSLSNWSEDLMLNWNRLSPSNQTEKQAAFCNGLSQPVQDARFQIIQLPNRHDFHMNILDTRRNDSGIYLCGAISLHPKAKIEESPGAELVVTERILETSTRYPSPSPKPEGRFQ

B1: anti-hCTLA-4scFv01 (not tagged) of single-expression strain C1TLB (scFv)
scFv: ATLTPQVQLVESGGGVVQPGRSLRLSCAASGFTFSSYGMHWVRQAPGKGLEWVAVIWYDGSNKYYADSVKGRFTISRDNSKNTLYLQMNSLRAEDTAVYYCARDPRGATLYYYYYGMDVWGQGTTVTVSSGGGGSGGGGSGGGGSDIQMTQSPSSLSASVGDRVTITCRASQSINSYLDWYQQKPGKAPKLLIYAASSLQSGVPSRFSGSGSGTDFTLTISSLQPEDFATYYCQQYYSTPFTFGPGTKVEIK
notes: Plasmid pC1TLB; PC4TL and PC6TL secrete the same scFv; Signal peptide SP50 left out; also called scFv derived from C1TLB strain; anti-hCTLA-4scFv01 in culture supernatants of PC4TL and PC6TL
B2: anti-hCTLA-4scFv01-FLAG purified from single-expression strain C2F (scFv)
scFv: AQVQLVESGGGVVQPGRSLRLSCAASGFTFSSYGMHWVRQAPGKGLEWVAVIWYDGSNKYYADSVKGRFTISRDNSKNTLYLQMNSLRAEDTAVYYCARDPRGATLYYYYYGMDVWGQGTTVTVSSGGGGSGGGGSGGGGSDIQMTQSPSSLSASVGDRVTITCRASQSINSYLDWYQQKPGKAPKLLIYAASSLQSGVPSRFSGSGSGTDFTLTISSLQPEDFATYYCQQYYSTPFTFGPGTKVEIKDYKDDDDK
notes: Plasmid pP30SP67L1-hCTLA-4scFv01-FLAG (pC2F); PC2 and PC7 secrete the same scFv; Signal peptide SP67 left out; also called scFv derived from C2F strain
B3: anti-hCTLA-4scFv01-FLAG purified from single-expression strain C3F (scFv)
scFv: B2 scFv with A1D
notes: Plasmid pP30SP68L1-hCTLA-4scFv01-FLAG (pC3F); PC3, PC5 and PC8 secrete the same scFv; also called scFv derived from C3F strain
B4: anti-hPD-1scFv03 purified from the culture supernatant of co-expression strain PC1 (scFv)
scFv: DSAQTSAVVSSRSFPKASSVQVQLVESGGGVVQPGRSLRLDCKASGITFSNSGMHWVRQAPGKGLEWVAVIWYDGSKRYYADSVKGRFTISRDNSKNTLFLQMNSLRAEDTAVYYCATNDDYWGQGTLVTVSSGGGGSGGGGSGGGGSEIVLTQSPATLSLSPGERATLSCRASQSVSSYLAWYQQKPGQAPRLLIYDASNRATGIPARFSGSGSGTDFTLTISSLEPEDFAVYYCQQSSNWPRTFGQGTKVEIKHHHHHH
notes: Secreted from the cassette SP7L20-anti-hPD-1scFv03-His tag; also called anti-PD-1scFv03
B5: anti-hCTLA-4scFv01-FLAG purified from single-expression strain C1F or from co-expression strain PC4 (scFv)
scFv: ATLTPQVQLVESGGGVVQPGRSLRLSCAASGFTFSSYGMHWVRQAPGKGLEWVAVIWYDGSNKYYADSVKGRFTISRDNSKNTLYLQMNSLRAEDTAVYYCARDPRGATLYYYYYGMDVWGQGTTVTVSSGGGGSGGGGSGGGGSDIQMTQSPSSLSASVGDRVTITCRASQSINSYLDWYQQKPGKAPKLLIYAASSLQSGVPSRFSGSGSGTDFTLTISSLQPEDFATYYCQQYYSTPFTFGPGTKVEIKDYKDDDDK
notes: Plasmid pP30SP50L5-hCTLA-4scFv01-FLAG (pC1F) and pPC4; PC4 and PC6 secrete the same scFv as C1F; Signal peptide SP50 left out; also called scFv derived from C1F strain; hCTLA-4scFv01-FLAG purified from PC4 strain
B6: anti-hCTLA-4scFv01 (not tagged) of single-expression strain C2TLB (scFv)
scFv: AQVQLVESGGGVVQPGRSLRLSCAASGFTFSSYGMHWVRQAPGKGLEWVAVIWYDGSNKYYADSVKGRFTISRDNSKNTLYLQMNSLRAEDTAVYYCARDPRGATLYYYYYGMDVWGQGTTVTVSSGGGGSGGGGSGGGGSDIQMTQSPSSLSASVGDRVTITCRASQSINSYLDWYQQKPGKAPKLLIYAASSLQSGVPSRFSGSGSGTDFTLTISSLQPEDFATYYCQQYYSTPFTFGPGTKVEIK
notes: Plasmid pC2TLB; PC2TL and PC7TL secrete the same scFv; Signal peptide SP67 left out; also called scFv derived from C2TLB strain; anti-hCTLA-4scFv01 in culture supernatants of PC2TL and PC7TL
B7: anti-hCTLA-4scFv01 (not tagged) of single-expression strain C3TLB (scFv)
scFv: B6 scFv with A1D
notes: Plasmid pC3TLB; PC3TL, PC5TL and PC8TL secrete the same scFv; Signal peptide SP68 left out; also called scFv derived from C3TLB strain; anti-hCTLA-4scFv01 in culture supernatants of PC3TL, PC5TL and PC8TL

Columns and labels:
[1] = target: T1, Recombinant Human CTLA-4-Fc Chimera …; experiment: SPR (Biacore), Fc-fused hCTLA-4 captured by anti-human IgG (Fc), scFv as analyte, single cycle kinetics
Experimental: The binding kinetic parameter of each hCTLA-4scFv01-FLAG purified to hCTLA-4 (fusion protein with human IgG1Fc) was measured by surface plasmon resonance using Biacore system (manufactured by GE Healthcare). To a substrate having a carboxyl methyl dextran-coated gold membrane, a mouse anti-human IgG (Fc) monoclonal antibody (manufactured by GE Healthcare) was bound in accordance with amine coupling, and Fc-fused recombinant hCTLA-4 (Biolegend) was captured as a ligand. As an analyte, scFv purified was used. Samples of scFv having a concentration of 0.7404, 2.2222, 6.6667, 20 and 60 nM were prepared and sequentially subjected to binding in order of increasing concentration in accordance with single cycle kinetics. Data obtained were analyzed by BIA evaluation software (manufactured by GE Healthcare).
The binding kinetic parameter to hCTLA-4 (fusion protein with human IgG1Fc) was measured by surface plasmon resonance using Biacore system. Thereafter, analysis was carried out in the same manner as in Example 29.

[2] = target: T2, mPD-1 (Fc Chimera, R&D Systems); experiment: ELISA, antigen-Fc immobilized, scFv at 10 ng/mL
Experimental: (§1) After the liquid was removed, 1×PBS (350 μL) for each was dispensed and the liquid was removed. This operation was repeated three times for washing. To each of the plates, 1% BSA solution (350 μL) was dispensed at room temperature and incubated for 2 hours for blocking. After the liquid was removed, 1×PBS (350 μL) for each was dispensed and the liquid was removed. This operation was repeated three times for washing.
(§2) To blank wells, the signal enhancing reagent alone was dispensed in an amount of 100 μL. […] After the liquid was removed, 1×PBS (350 μL for each) was dispensed and the liquid was removed. This operation was repeated three times for washing.
(§3) The plates were shielded from light and incubated at room temperature for 20 minutes. […] Absorbance was measured at 450 nm and 570 nm (reference wavelength).

[3] = target: T1, Recombinant Human CTLA-4-Fc Chimera …; experiment: ELISA, antigen-Fc immobilized, scFv at 10 ng/mL
Experimental: as §1, §2, §3

[4] = target: T2, mPD-1 (Fc Chimera, R&D Systems); experiment: ELISA, antigen-Fc immobilized, scFv at 1000 ng/mL
Experimental: as §1, §2, §3

[5] = target: T1, Recombinant Human CTLA-4-Fc Chimera …; experiment: ELISA, antigen-Fc immobilized, scFv at 1000 ng/mL
Experimental: as §1, §2, §3

[6] = target: T2, mPD-1 (Fc Chimera, R&D Systems); experiment: ELISA, antigen-Fc immobilized, scFv at 100 ng/mL
Experimental: as §1, §2, §3

[7] = target: T1, Recombinant Human CTLA-4-Fc Chimera …; experiment: ELISA, antigen-Fc immobilized, scFv at 100 ng/mL
Experimental: as §1, §2, §3

[8] = target: T2, mPD-1 (Fc Chimera, R&D Systems); experiment: ELISA, antigen-Fc immobilized, scFv at 1 ng/mL
Experimental: as §1, §2, §3

[9] = target: T1, Recombinant Human CTLA-4-Fc Chimera …; experiment: ELISA, antigen-Fc immobilized, scFv at 1 ng/mL
Experimental: as §1, §2, §3

[10] = target: T3, human PD-1 overexpressed on HEK293T cells (human, UniProt Q15116 25-288); experiment: flow cytometry on HEK293T cells overexpressing hPD-1; anti-hCTLA-4scFv01-FLAG purified from PC4, used as in Example 24 (biotinylated Protein L and Brilliant Violet 421 Streptavidin) [d]
T3 construct: whole, on cells; also called hPD-1 expressing cells; human PD-1 overexpressing cell
T3 sequence (Q15116 25-288): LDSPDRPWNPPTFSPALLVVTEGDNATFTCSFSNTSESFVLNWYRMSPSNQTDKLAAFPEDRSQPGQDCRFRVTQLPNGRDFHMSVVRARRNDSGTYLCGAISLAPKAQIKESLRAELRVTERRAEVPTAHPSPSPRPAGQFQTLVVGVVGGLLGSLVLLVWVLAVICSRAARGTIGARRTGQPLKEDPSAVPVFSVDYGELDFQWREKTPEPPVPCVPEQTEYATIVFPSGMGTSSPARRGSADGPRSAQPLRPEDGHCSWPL

Binder | Kd [1] [nM] | koff [1] [s⁻¹] | kon [1] [M⁻¹ s⁻¹] | also measured
B1 | 1.48 | 0.00098 | 661000 | –
B2 | 2.28 | 0.00103 | 452000 | –
B3 | 2.97 | 0.00103 | 347000 | –
B4 | – | – | – | OD value [2]: -0.057 OD; OD value [3]: -0.055 OD; OD value [4]: 0.107 OD; OD value [5]: 0.341 OD; OD value [6]: -0.049 OD; OD value [7]: -0.018 OD; OD value [8]: -0.059 OD; OD value [9]: -0.062 OD
B5 | 1.08 | 0.000996 | 918000 | binding result [10]: no binding (tested: 1 ug/mL)
B6 | 0.98 | 0.000961 | 981000 | –
B7 | 1.29 | 0.000996 | 773000 | –
